{"source": "paper doi:10.1101/2022.03.21.484600", "about": "(bioRxiv, 2022)", "proteins": {"B1": {"name": "Purified full-length PKM2 H391R (enzyme)", "chain": "not shown"}, "B2": {"name": "Purified full-length Cdc19, wild type (enzyme)", "chain": "MSRLERLTSLNVVAGSDLRRTSIIGTIGPKTNNPETLVALRKAGLNIVRMNFSHGSYEYHKSVIDNARKSEELYPGRPLAIALDTKGPEIRTGTTTNDVDYPIPPNHEMIFTTDDKYAKACDDKIMYVDYKNITKVISAGRIIYVDDGVLSFQVLEVVDDKTLKVKALNAGKICSHKGVNLPGTDVDLPALSEKDKEDLRFGVKNGVHMVFASFIRTANDVLTIREVLGEQGKDVKIIVKIENQQGVNNFDEILKVTDGVMVARGDLGIEIPAPEVLAVQKKLIAKSNLAGKPVICATQMLESMTYNPRPTRAEVSDVGNAILDGADCVMLSGETAKGNYPINAVTTMAETAVIAEQAIAYLPNYDDMRNCTPKPTSTTETVAASAVAAVFEQKAKAIIVLSTSGTTPRLVSKYRPNCPIILVTRCPRAARFSHLYRGVFPFVFEKEPVSDWTDDVEARINFGIEKAKEFGILKKGDTYVSIQGFKAGAGHSNTLQVSTV"}}, "key": {"pelleting assay": {"biological_target": "the molecule itself", "experiment": "pelleting assay"}, "[1]": {"biological_target": "the molecule itself", "experiment": "circular dichroism of fibrils collected by centrifugation"}, "[2]": {"biological_target": "the molecule itself", "experiment": "pelleting by centrifugation + negative staining TEM"}, "[3]": {"biological_target": "the molecule itself", "experiment": "fibril formation seen by negative staining TEM"}, "SEC": {"biological_target": "the molecule itself", "experiment": "SEC"}}}
{"protein": "B1", "values": [{"measurement": "binding result", "setting": "pelleting assay", "result": "binds"}]}
{"protein": "TSTTATVAASAVAAVFA", "note": "[Cdc19 amyloid core peptide, E380A E392A]", "values": [{"measurement": "binding result", "setting": "[1]", "result": "binds"}]}
{"protein": "AREAEAAIYHLQLFEELRRLA", "note": "[PKM2 amyloid core centre peptide, wild type (amino acids 382-402)]", "values": [{"measurement": "binding result", "setting": "[2]", "result": "binds"}]}
{"protein": "TSTTETVAASAVAAVFE", "note": "[Cdc19 amyloid core peptide, wild type (amino acids 376-392)]", "values": [{"measurement": "binding result", "setting": "[1]", "result": "binds"}]}
{"protein": "AREAEAAIYRLQLFEELRRLA", "note": "[PKM2 amyloid core centre peptide H391R (amino acids 382-402)]", "values": [{"measurement": "binding result", "setting": "[2]", "result": "binds"}]}
{"protein": "TSTTQTVAASAVAAVFQ", "note": "[Cdc19 amyloid core peptide, E380Q E392Q]", "values": [{"measurement": "binding result", "setting": "[3]", "result": "binds"}]}
{"protein": "B2", "values": [{"measurement": "stoichiometry N", "setting": "SEC", "result": 4}]}
